This note sets out measurements from patent US5834273A, “Heat-stable and water soluble modified enzymes” (Wako Pure Chemical Industries, Ltd., priority 1991, dated 1998).

The target of the data set is T1, XOD (Bos taurus, UniProt P80457).
T1 construct: purchased Boehringer Mannheim GmbH
Briefly: Thermal stability of XOD. The format is physicochemical, cow. The following applies: 75 min, pH 7.0, 0.2 U/ml. How it is done:
Measuring Method of XOD Activity
The method described in Method of Enzymatic Analysis, vol. 3, pages 212, 1983.
To 2 ml of aqueous solution containing 5 mg of pyromellitic acid-modified dextran obtained in Example 1(1), 65 mg of WSC was added. To the resulting solution maintained at pH 6.0 using a pH-stat, 0.5 ml of 10 mM phosphate buffer solution (pH 7.0) containing 10 mg of XOD (mfd. by Boehringer Mannheim GmbH., derived from cow milk) was added and reacted at 50° C. for 24 hours.
The thus obtained modified XOD and the intact XOD were dissolved in 20 mM phosphate buffer solution (pH 7.0) in an amount of 0.2 U/ml, respectively,and stored at a predetermined temperature for 75 min. to measure the change of residual activity.

T1 sequence (P80457 whole entry): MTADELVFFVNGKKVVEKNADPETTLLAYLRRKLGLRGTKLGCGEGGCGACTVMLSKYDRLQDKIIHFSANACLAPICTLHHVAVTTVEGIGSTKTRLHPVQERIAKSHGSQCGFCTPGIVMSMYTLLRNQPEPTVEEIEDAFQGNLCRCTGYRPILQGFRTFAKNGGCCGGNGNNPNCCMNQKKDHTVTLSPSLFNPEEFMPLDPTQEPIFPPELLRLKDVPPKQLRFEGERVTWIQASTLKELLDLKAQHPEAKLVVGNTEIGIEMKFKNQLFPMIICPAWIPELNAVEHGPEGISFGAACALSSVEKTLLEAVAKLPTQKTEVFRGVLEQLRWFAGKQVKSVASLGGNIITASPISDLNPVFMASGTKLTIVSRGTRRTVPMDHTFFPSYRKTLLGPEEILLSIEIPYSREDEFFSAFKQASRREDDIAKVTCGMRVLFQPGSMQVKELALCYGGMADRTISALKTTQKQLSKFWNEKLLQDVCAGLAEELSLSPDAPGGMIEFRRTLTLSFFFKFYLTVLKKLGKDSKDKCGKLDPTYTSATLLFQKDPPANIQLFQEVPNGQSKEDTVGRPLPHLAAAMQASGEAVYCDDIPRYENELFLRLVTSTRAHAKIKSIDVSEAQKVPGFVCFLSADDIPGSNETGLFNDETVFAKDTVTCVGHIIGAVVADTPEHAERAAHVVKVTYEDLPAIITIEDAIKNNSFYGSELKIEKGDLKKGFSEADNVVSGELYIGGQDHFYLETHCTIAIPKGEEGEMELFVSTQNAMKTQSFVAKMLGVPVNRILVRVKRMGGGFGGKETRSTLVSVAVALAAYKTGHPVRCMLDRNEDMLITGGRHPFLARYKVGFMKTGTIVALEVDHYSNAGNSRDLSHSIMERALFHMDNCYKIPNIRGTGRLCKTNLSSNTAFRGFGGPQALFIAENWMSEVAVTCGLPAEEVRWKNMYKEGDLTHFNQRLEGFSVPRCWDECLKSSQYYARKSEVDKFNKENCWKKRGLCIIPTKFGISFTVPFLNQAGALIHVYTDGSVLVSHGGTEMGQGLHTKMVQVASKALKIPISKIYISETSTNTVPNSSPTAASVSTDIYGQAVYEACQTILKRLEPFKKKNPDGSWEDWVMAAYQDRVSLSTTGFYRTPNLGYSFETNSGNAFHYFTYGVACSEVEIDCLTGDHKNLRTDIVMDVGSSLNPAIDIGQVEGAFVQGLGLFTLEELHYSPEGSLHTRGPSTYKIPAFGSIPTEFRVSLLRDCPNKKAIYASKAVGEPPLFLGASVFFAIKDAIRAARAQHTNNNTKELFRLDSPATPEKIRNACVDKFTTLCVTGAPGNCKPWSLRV

With “Intact XOD: xanthine oxidase (E.C.1.2.3.2), mfd. by Boehringer Mannheim GmbH., derived from cow milk”, the Residual activity (56 °C) is listed as 40.5%, the Residual activity (58 °C) came out at 31.2% and the Residual activity (60 °C) was 23.4%.
